Experimental data: IntAct's records for PubMed 25122212

B1: Envelope small membrane protein (Human SARS coronavirus), P59637 (parent)
chain: MYSFVSEETGTLIVNSVLLFLAFVVFLLVTLAILTALRLCAYCCNIVNVSLVKPTVYVYSRVKNLNSSEGVPDLLV

Variants of: B1
Conditions: with SDCBP

Variant	effect of a mutation on the interaction
E69A;V71A;D73A;L75A	with no effect

Variants of: B1
Conditions: with SDCBP
Remark: another data set of the same source

Variant	effect of a mutation on the interaction
D73G;L74G;L75G;V76G	decreasing interaction strength
